Laboratory results published in patent US20220064303A1 (GIGAGEN, published 2022).
One block for each binder: values may come before it.

What was measured:
Cyno CTLA4 = target: T1, Cyno CTLA4 (cyno, UniProt G7PL88 36-161); experiment: BLI (Octet Red96), mAb on AHC biosensor, antigen as analyte
T1 construct: Soluble antigen used as analyte in BLI
Procedure: The binding specificity and affinity of each full-length antibody towards CTLA-4 were determined using biolayer interferometry (BLI) and/or surface plasmon resonance (SPR). Anti-cyno CTLA-4 and anti-mouse CTLA-4 affinities were tested using ForteBio (BLI). Anti-human CTLA-4 affinities were measured using Carterra (SPR).
For BLI, antibodies were loaded onto an Anti-Human IgG Fc (AHC) biosensor using the Octet Red96 system (ForteBio). Loaded biosensors were dipped into antigen dilutions beginning at 300 nM, with 6 serial dilutions at 1:3. Kinetic analysis was performed using a 1:1 binding model and global fitting.

[1] = target: CTLA-4 on CTLA-4 effector cells (CTLA-4 Blockade Bioassay, Promega) (UniProt P16410 36-223, limits assumed); experiment: cell-based or functional assay
CTLA-4 on CTLA-4 effector cells (CTLA-4 Blockade Bioassay, Promega), sequence (P16410 36-223 limits assumed): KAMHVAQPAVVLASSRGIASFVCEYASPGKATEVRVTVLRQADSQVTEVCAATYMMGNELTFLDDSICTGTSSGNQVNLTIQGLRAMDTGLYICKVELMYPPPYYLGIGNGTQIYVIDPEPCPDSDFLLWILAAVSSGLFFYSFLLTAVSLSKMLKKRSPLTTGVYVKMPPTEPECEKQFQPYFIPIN

T1 sequence (G7PL88 entry or part of it): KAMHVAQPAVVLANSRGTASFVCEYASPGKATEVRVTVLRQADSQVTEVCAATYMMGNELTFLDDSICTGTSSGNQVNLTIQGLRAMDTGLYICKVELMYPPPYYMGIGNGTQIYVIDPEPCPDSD

- Kd (Cyno CTLA4): 1.3 nM
B1: Ipilimumab (antibody, V domains shown)
VH: QVQLVESGGGVVQPGRSLRLSCAASGFTFSSYTMHWVRQAPGKGLEWVTFISYDGNNKYYADSVKGRFTISRDNSKNTLYLQMNSLRAEDTAIYYCARTGWLGPFDYWGQGTLVTVSS
VL: not shown

- Promega assay % inhibition [1]: 0%
B2: A23 (antibody, V domains shown)
VH: QVQLVQSGAEVKKPGASVKVSCKASGYTFTSYGISWVRQAPGQGLEWMGWISAYNGNTYYAQKFQGRVTMTTDTSTSTAYVELRSLRSDDTAVYYCARVTGRDAFDIWGQGTMVTVSS
VL: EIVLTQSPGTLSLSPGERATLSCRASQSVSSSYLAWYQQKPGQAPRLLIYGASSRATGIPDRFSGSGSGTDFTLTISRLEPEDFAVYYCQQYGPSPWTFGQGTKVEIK

- Promega assay % inhibition [1]: 0%
B3: A28 (antibody, V domains shown)
VH: QVQLVESGGGVVQPGRSLGLSCAASGFTFSTYGMHWVRQAPGKGLEWVAVTLYDGSNKYYADSVKGRFTISRDNSKNTLYLQMNSLRAEDTAVYYCARASLTGSFDYWGQGTLVTVSS
VL: not shown
